Laboratory results from paper PMC2918291 (Nature structural & molecular biology, 2010).

Target: the molecule itself
Assay: crystal structure

B1: MthK K^+ channel ion conduction pore, S68R V77C mutant (domain or fragment, Methanobacterium thermoautotrophicum)
chain: VPATRILLLVLAVIIYGTAGFHFIEGESWTVSLYWTFVTIATVGYGDYSPRTPLGMYFTCTLIVLGIGTFAVAVERLLEFLI
**Q.** Does B1 bind?
**A.** Result: binds
